Patent WO2012092539A2 (dated 2012)
One block for each binder: values may come before it.

Target: DLL4 protein (R&D Systems) (Homo sapiens (Human), UniProt Q9NR61 27-524)
Test: cell-based or functional assay

DLL4 protein (R&D Systems), sequence (Q9NR61 27-524 limits assumed): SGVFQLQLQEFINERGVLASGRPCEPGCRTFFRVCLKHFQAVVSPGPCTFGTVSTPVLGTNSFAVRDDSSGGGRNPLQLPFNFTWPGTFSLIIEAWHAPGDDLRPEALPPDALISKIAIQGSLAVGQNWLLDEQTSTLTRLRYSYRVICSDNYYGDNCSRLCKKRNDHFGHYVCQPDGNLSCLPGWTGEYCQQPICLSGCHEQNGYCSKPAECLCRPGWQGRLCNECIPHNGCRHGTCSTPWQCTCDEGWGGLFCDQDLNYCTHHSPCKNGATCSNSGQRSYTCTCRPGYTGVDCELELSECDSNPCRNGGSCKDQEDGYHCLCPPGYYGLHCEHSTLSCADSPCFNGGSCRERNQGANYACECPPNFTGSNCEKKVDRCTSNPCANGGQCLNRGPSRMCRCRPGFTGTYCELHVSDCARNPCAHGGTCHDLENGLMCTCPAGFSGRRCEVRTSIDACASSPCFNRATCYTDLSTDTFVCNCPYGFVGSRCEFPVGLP

EC50, HUVEC proliferation on DLL4-coated wells (CellTiter Glo, day 3): 45 nM
B2: BA2 (antibody, V domains shown)
VH: EVQLVESGGGLVQPGGSLRLSCAASGFTFTDNWISWVRQAPGKGLEWVGYISPNSGFTYYADSVKGRFTISADTSKNTAYLQMNSLRAEDTAVYYCARDNFGGYFDYWGQGTLVTVSS
VL: DIQMTQSPSSLSASVGDRVTITCRASQDVSTAVAWYQQKPGKAPKLLIYSASFLYSGVPSRFSGSGSGTDFTLTISSLQPEDFATYYCQQSYTGTVTFGQGTKVEIKR

EC50, HUVEC proliferation on DLL4-coated wells (CellTiter Glo, day 3): 60 nM
B4: BA1 (antibody, V domains shown)
VH: QVQLVQSGAEVKKPGASVKISCKASGYSFTAYYIHWVKQAPGQGLEWIGYISSYNGATNYNQKFKGRVTFTTDTSTSTAYMELRSLRSDDTAVYYCARDYDYDVGMDYWGQGTLVTVSS
VL: DIVMTQSPDSLAVSLGERATISCRASESVDNYGISFMKWFQQKPGQPPKLLIYAASNQGSGVPDRFSGSGSGTDFTLTISSLQAEDVAVYYCQQSKEVPWTFGGGTKVEIKR

The remaining lines, values behind:

B1: 12.55 (antibody, human IgG2, V domains shown)
VH: EVQLVETGGGLVQPGGSLRLSCAASGFTFSDYAMSWVRQTPGKGLEWVSTISGSGGDTFYADSVKGRFTISRDNSKNTLYLQVNSLRAEDTAVYYCAKDKNRGAYADAFDIWGQGTMVTVSS
VL: QAVLTQPASLSASPGASASLTCTLRSDINVATYRIYWYKQKPGSPPQYLLTYKSDSDKQQGSGVPSRFSGSKDSSANAGILLISGLQSDDEADYHCMVWHKSAPIFGGGTKVTVLG
EC50, HES1 luciferase reporter in HELA cells on DLL4-coated wells: 21.9 nM

B3: 12.3 1C1 (antibody, V domains shown)
VH: DVQLQESGPDLVKPSQSLSLTCTVTDHSITSGYSWHWIRQFPGNKLEWMAYIHYSGYTHYNPSLKSRISITRDTSKNQFFLHLNSVTTEDSATFYCAGSDYSANEGAMAYWGQGTSATVSS
VL: DIVLTQSPASLAVSLGQRATISCRASESVDSFGNSFMHWYQQKAGQPPKLLIYRTSNLQSGIPARFSGSGSRTDFTLTINPVEADDVATYYCQQSNEDPWTFGGGTKLEIKR
EC50, HUVEC proliferation on DLL4-coated wells (CellTiter Glo, day 3): 3.9 nM
